The data set is described as follows: protein stability index of a GFP-peptide fusion (yeast GPS) (PSI 1-4); higher = more stable; sorted into four equal gates, so the index is relative within each strain. In short, it runs like this: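 Tiled yeast protein peptides of 17 residues were each joined downstream of GFP, on plasmids that also express Cherry. The pooled library was maintained in yeast, and mid-log cultures in leucine-free medium were sorted into four equal gates on the GFP/Cherry ratio. Plasmids from every gate were amplified by PCR and sequenced on Illumina, with barcodes linking reads to strains. The protein stability index of a peptide is its gate-number-weighted read frequency summed over the gates.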

± gives the uncertainty stated by the source.

Among the data in the supplement of paper PMC9732359 are protein stability index values, retold here.

With QQQDQPEQSEQPEQHQD [RPN10], the protein stability index was found to be 3 ± 0.052 (doa10∆), 3.12 ± 0.053 (pdr5∆), 2.85 ± 0.046 (san1∆) and 3.24 ± 0.059 (ubr1∆).
EDEMMHEEDQKTNIIEK [RPN12]: the protein stability index by setting is: (doa10∆) 3.26 ± 0.1; (pdr5∆) 3.09 ± 0.12; (san1∆) 2.58 ± 0.15; (ubr1∆) 2.85 ± 0.13.
On to KKSKRLDKVGKKKGGKK [LRP1], for which the protein stability index was determined as 3.16 ± 0.15 (doa10∆), 2.43 ± 0.27 (pdr5∆), 2.99 ± 0.12 (san1∆) and 3.24 ± 0.21 (ubr1∆).
The like results for ASKGIDRLSLQDRQQLL [ECM29] were, in that order, 3.08 ± 0.083, 3.11 ± 0.07, 3.19 ± 0.085 and 3.21 ± 0.056.
In the case of VKLLKTTVPIVSKKRQK [POP3], the protein stability index came out at 3.2 ± 0.1 (doa10∆), 2.95 ± 0.069 (pdr5∆), 2.87 ± 0.083 (san1∆) and 2.74 ± 0.07 (ubr1∆).
In turn, YMEQGNNKIITLVKGPK [SKI6] registered a protein stability index (doa10∆) of 2.76 ± 0.054, a protein stability index (pdr5∆) of 3.11 ± 0.085, a protein stability index (san1∆) of 2.8 ± 0.054 and a protein stability index (ubr1∆) of 2.96 ± 0.034.
Consider IPDLSIQNDIYLNDLMI [RPN12], for which the protein stability index by setting is: (doa10∆) 2.99 ± 0.046; (pdr5∆) 3.06 ± 0.042; (san1∆) 2.99 ± 0.044; (ubr1∆) 3.02 ± 0.046.
Turning to IRAGEFDVVLTTFEYII [SNF2], the protein stability index runs as follows: (doa10∆) 2.31 ± 0.14; (pdr5∆) 2.56 ± 0.13; (san1∆) 2.37 ± 0.11; (ubr1∆) 2.59 ± 0.12.
Turning to VYLTAVLEYLAAEILEL [HTA1], the protein stability index amounted to 2.47 ± 0.12 (doa10∆), 2.43 ± 0.1 (pdr5∆), 2.21 ± 0.09 (san1∆) and 2.61 ± 0.075 (ubr1∆).
The sequence PVLSTIAFLVGLVNPKT [SWI3] returned a protein stability index (doa10∆) of 2.98 ± 0.085, a protein stability index (pdr5∆) of 2.52 ± 0.058, a protein stability index (san1∆) of 2.33 ± 0.066 and a protein stability index (ubr1∆) of 2.86 ± 0.042.
The like results for EDMETQASDPSKKKKNI [RPC53] were, in that order, 3.27 ± 0.14, 3.44 ± 0.19, 3.24 ± 0.16 and 3.33 ± 0.15.
The matching figures for SELNEGNLSKREIQIDA [SRB8]: 2.69 ± 0.062, 2.88 ± 0.073, 2.98 ± 0.069 and 2.12 ± 0.063.
On to ENPAFLPGTNNNSNSNN [SEC65], for which the protein stability index was 3.12 ± 0.17 (doa10∆), 3.13 ± 0.24 (pdr5∆), 2.69 ± 0.15 (san1∆) and 2.86 ± 0.067 (ubr1∆).
The like results for QLDDEDFDLLNKTLTFE [FAS1] were, in that order, 3.38 ± 0.12, 3.58 ± 0.098, 3.36 ± 0.069 and 3.16 ± 0.085.
For the sequence QFTGFLLHEMTQTYMQM [GRR1], the protein stability index is, setting by setting: (doa10∆) 1.92 ± 0.054; (pdr5∆) 2.08 ± 0.036; (san1∆) 2.2 ± 0.051; (ubr1∆) 1.9 ± 0.041.
Consider VEGPKFTIDAKPPISDS [YLR335W/NUP2], for which the protein stability index came out at 3.31 ± 0.048 (doa10∆), 3.47 ± 0.058 (pdr5∆), 3.29 ± 0.048 (san1∆) and 3.36 ± 0.046 (ubr1∆).
The like results for KPTEVNDSENNSSEEDK [ITC1] were, in that order, 2.82 ± 0.058, 2.74 ± 0.082, 3.17 ± 0.052 and 3.3 ± 0.067.
In the case of NKKSEQALDISKKGKPT [SRP72], the protein stability index came to 3.1 ± 0.1 (doa10∆), 3.02 ± 0.071 (pdr5∆), 2.81 ± 0.061 (san1∆) and 3.04 ± 0.073 (ubr1∆).
For ECFISMQSTSPAVKQWD [SWI1], the protein stability index worked out at 2.34 ± 0.083 (doa10∆), 2.38 ± 0.058 (pdr5∆), 2.4 ± 0.086 (san1∆) and 2.65 ± 0.06 (ubr1∆).
With IEQFAMRRNSKILNIIK [POP5], the protein stability index runs as follows: (doa10∆) 3.08 ± 0.084; (pdr5∆) 2.88 ± 0.077; (san1∆) 2.86 ± 0.076; (ubr1∆) 3.23 ± 0.07.
Turning to GAAANNNDQKRQQAYKT [YJL041W/NSP1], the protein stability index by setting is: (doa10∆) 3.06 ± 0.063; (pdr5∆) 3.02 ± 0.056; (san1∆) 3.09 ± 0.042; (ubr1∆) 3.22 ± 0.066.
On to TITIKSYHLWPSFTDEQ [PRP8], for which the protein stability index is, setting by setting: (doa10∆) 2.32 ± 0.057; (pdr5∆) 2.81 ± 0.061; (san1∆) 2.41 ± 0.073; (ubr1∆) 2.51 ± 0.047.
The matching figures for IRALQPKLKEGALHFVQ [YIL149C/MLP2]: 2.77 ± 0.074, 2.06 ± 0.077, 2.17 ± 0.068 and 2.69 ± 0.071.
For LEKVVPLINVVVDILSA [BRR2], the protein stability index (ubr1∆) is 1.26 ± 0.19.
As to NAYASFLQRQGKLEVPG [RPS19A], the protein stability index turned out to be 3.24 ± 0.19 (pdr5∆), 3.21 ± 0.12 (san1∆) and 3.2 ± 0.094 (ubr1∆).
